Measured values published in article PMC4182348 (PLoS ONE, 2014).

B1: anti-TT mAb of hybridoma 24 (antibody, V domains shown)
VH: VQLQQTGPGLVQPSQSLSITCTVSAFSLTNYGIHWVRQSPGKGLEWLGVIWTGGSTDYNAPFISRLSISKDNSKSQVFFKMNSLQANDTAIYYCVRDGYRVMDYWGQGTSVTVSS
VL: LSASVGETVTITCRASGNIHNYLAWYQQKQGKSPQLLVYNAKTLTDGVPSRFSGSGSGTQHSLKINSLQPEDFGSYYCQHFWTIPWTFGGGTKLEIK
B2: anti-TT mAb of hybridoma 14 (antibody, V domains shown)
VH: VQLQESGPGLVAPSQSLSITCTVSGFSLTSYGVHWVRQPPGKGLEWLGVIWPGGSTNYNSALMSRLSISQDNSKSQVFLKMNSLQIDDTAMYHCARDFQYGNYFDYWGQGTSLTVSS
VL: MPASPGEKITITCSASSSISSNYLHWYQQKPGFSPKLLIYRTSNLASGVPARFSGSGSGTSYSLTVGTMEAEDVATYYCQQGTSIPTFGAGTKLELK

Tests used:
[1] = target: tetanus toxin fragment C of the heavy chain; test: ELISA; details: one partner purified
[2] = target: T1, tetanus toxin light chain (Clostridium tetani, strain  …, UniProt P04958); test: ELISA; details: one partner purified
T1 construct: source: bought: List Biological Laboratories
T1 sequence (P04958 1-457): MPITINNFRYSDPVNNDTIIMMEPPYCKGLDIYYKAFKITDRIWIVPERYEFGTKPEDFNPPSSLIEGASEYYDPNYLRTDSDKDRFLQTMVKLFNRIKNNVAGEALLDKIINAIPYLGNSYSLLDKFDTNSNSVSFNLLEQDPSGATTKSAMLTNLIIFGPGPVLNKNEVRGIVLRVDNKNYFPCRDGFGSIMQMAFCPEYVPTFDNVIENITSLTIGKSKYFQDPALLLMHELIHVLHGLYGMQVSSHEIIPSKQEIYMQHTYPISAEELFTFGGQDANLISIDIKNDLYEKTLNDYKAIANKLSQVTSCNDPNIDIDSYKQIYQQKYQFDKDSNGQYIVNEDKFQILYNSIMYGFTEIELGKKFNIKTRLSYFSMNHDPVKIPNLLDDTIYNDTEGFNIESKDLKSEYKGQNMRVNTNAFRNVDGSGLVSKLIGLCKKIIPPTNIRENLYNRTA

Chain of tetanus toxin fragment C of the heavy chain (P04958 865-1315 limits assumed): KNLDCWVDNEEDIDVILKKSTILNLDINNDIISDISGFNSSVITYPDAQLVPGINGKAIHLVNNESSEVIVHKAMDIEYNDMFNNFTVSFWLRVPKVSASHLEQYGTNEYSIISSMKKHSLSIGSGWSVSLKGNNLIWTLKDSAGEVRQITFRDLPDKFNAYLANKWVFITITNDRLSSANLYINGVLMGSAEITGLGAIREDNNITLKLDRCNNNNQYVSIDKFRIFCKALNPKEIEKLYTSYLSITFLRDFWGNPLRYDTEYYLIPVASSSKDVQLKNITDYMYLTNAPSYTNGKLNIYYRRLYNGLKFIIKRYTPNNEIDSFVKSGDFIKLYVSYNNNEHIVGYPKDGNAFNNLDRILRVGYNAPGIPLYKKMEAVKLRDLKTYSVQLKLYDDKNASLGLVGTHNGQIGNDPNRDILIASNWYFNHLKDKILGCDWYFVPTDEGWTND

Binder	binding result [1]	binding result [2]
B1	binds	no binding
B2	no binding	no binding
